In patent US12091680B2, “Method for differentiation induction in cultured stem cells” (RIKEN, priority 2009, dated 2024):

B1: Nodal: Recombinant Mouse Nodal (R&D); acts on cell surface receptors common with Activin and activates Smad2/3 signals (protein, UniProt P43021 245-354, looked up)
Nodal: HHLPDRSQLCRRVKFQVDFNLIGWGSWIIYPKQYNAYRCEGECPNPVGEEFHPTNHAYIQSLLKRYQPHRVPSTCCAPVKTKPLSMLYVDNGRVLLEHHKDMIVEECGCL
B2: TGF-beta2: growth factor tested at 1000 ng/ml in place of Nodal; printed as 'TGF-beta1 or 2' (protein, UniProt P61812 303-414, looked up)
Transforming growth factor …: ALDAAYCFRNVQDNCCLRPLYIDFKRDLGWKWIHEPKGYNANFCAGACPYLWSSDTQHSRVLSLYNTINPEASASPCCVSQDLEPLTILYYIGKTPKIEQLSNMIVKSCKCS
B3: Activin: Human Activin (R&D); acts on cell surface receptors common with Nodal and activates Smad2/3 signals (protein, UniProt P08476 311-426, looked up)
Inhibin beta A chain: GLECDGKVNICCKKQFFVSFKDIGWNDWIIAPSGYHANYCEGECPSHIAGTSGSSLSFHSTVINHYRMRGHSPFANLKSCCVPTKLRPMSMLYYDDGQNIIKKDIQNMIVEECGCS

System: Rx-GFP ES cells
Assay: SFEBq culture with purified laminin/entactin and Nodal/Activin, formation of RxGFP+ vesicles and cup structures (Example 6)
Type: cell-based, mouse
Conditions: for replacement of the retinal inducing activity of Nodal: 1000 ng/ml; for replacement of the retinal inducing activity of Nodal / appearance of Rx-GFP+ epithelia in SFEBq aggregates / morphology of Rx-GFP+ epithelia: combined with laminin+entactin; for appearance of Rx-GFP+ epithelia in SFEBq aggregates / morphology of Rx-GFP+ epithelia: treatment days 1-7; for appearance of Rx-GFP+ epithelia in SFEBq aggregates: Nodal 500 and 1000 ng/ml, Activin 250 ng/ml, read on day 7; for morphology of Rx-GFP+ epithelia: day 7 and day 10; for effect on neural (Sox1) and retinal (Rx) differentiation: treatment of SFEBq cells from day 0
Description: Rx-GFP ES cells (3000 cells/well, 96-well plate) were cultured in SFEBq culture with G-MEM supplemented with 1.5% KSR. In this experiment, instead of adding Matrigel to culture, purified laminin and entactin (High concentration Laminin/Entactin complex; BD; 120 μg/ml) were added as extracellular matrix proteins on day 1 (24 hours after the onset of differentiation culture). Recombinant Mouse Nodal (R&D; 500-1000 ng/mL) or Human Activin (R&D; 250 ng/ml) was also added on day 1 and the Nodal treatment was continued until day 7. SFEBq aggregates were cultured for 7-10 days and the formation of RxGFP+ vesicles and cup structures were examined under a fluorescent microscope. Nodal and Activin are known to act on common cell surface receptors and activate Smad2/3 signals in the cell.

Molecule | replacement of the retinal inducing activity of Nodal | appearance of Rx-GFP+ epithelia in SFEBq aggregates | morphology of Rx-GFP+ epithelia | effect on neural (Sox1) and retinal (Rx) differentiation
TGF-beta1: growth factor tested at 1000 ng/ml in place of Nodal | did not replace the inducing activity of Nodal | – | – | –
B1 | – | large patches of Rx-GFP+ epithelia appeared | formed optic vesicle-like sacs on day 7 and later exhibited the optic cup-like morphology on day 10 | inhibited both neural (Sox1) and retinal (Rx) differentiation
B2 | did not replace the inducing activity of Nodal | – | – | –
B3 | – | large patches of Rx-GFP+ epithelia appeared | formed optic vesicle-like sacs on day 7 and later exhibited the optic cup-like morphology on day 10 | inhibited both neural (Sox1) and retinal (Rx) differentiation
